The target in the series is T1, pcGAS full-length (pcGASFL) (Sus scrofa (porcine), UniProt I3LM39 1-495).
T1 sequence: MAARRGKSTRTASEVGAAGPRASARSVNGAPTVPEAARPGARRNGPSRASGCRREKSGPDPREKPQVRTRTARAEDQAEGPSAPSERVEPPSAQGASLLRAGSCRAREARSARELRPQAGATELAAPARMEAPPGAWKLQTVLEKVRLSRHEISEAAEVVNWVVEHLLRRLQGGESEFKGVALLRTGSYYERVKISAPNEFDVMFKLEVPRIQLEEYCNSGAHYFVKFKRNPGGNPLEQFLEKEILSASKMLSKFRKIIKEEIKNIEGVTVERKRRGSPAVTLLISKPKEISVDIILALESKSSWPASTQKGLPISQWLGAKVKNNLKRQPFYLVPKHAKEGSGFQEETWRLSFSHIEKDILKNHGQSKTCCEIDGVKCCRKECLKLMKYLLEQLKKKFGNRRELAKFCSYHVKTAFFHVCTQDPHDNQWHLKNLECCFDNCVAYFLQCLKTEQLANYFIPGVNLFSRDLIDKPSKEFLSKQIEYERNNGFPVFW
Description: EMSA; pcGAS dose series; EMSA: 50 uM ISD45, pcGAS at DNA:protein 1:1 to 1:32, RT 1 h, 1% agarose in 40 mM Tris-HCl pH 9.2; pull-down: pcGAS + 3C in 50 mM HEPES pH 7.5, 3 mM EDTA, 150 mM NaCl, 0.005% Tween-20, 10 mM DTT at 37 C 2 h, then 4 h with HSV60 streptavidin beads. The note with it: protein: recombinant; tags: N-term His6-SUMO-FLAG, C-term HA (SUMO kept on full-length protein); blunt. Background: Mobility shift assays separate free from complexed probe on a gel.

B1: ISD45 (dsDNA)
DNA 1: TACAGATCTACTAGTGATCTATGACTGATCTGTACATGATCTACA
DNA 2: TGTAGATCATGTACAGATCAGTCATAGATCACTAGTAGATCTGTA
Turning to B1, the binding result is “binds”.

The values above are taken from publication PMC10521975, “Species-specific cleavage of cGAS by picornavirus protease 3C disrupts mitochondria DNA-mediated immune sensing”.
